Source: the RNAGym collection of RNA variant scans (doi:10.7554/elife.80360)

B1: CPEB3 Ribozyme (parent)
chain: GGGGGCCACAGCAGAAGCGUUCACGUCGCGGCCCCUGUCAGAUUCUGGUGAAUCUGCGAAUUCUGCUGU

Variants of: B1
Assay: self-cleavage, relative activity (ratio to wild type); higher = more cleavage; co-transcriptional
For C9G C34G, the self-cleavage was 0.994.
C9G U44A showed a self-cleavage of 0.956.
Work on C9G U44C yielded a self-cleavage of 0.954.
Variant C9G G41C has a self-cleavage of 0.964.
Variant C9G G41U has a self-cleavage of 0.888.
With C9A C24G the self-cleavage was 0.697.
C9U A51G gave a self-cleavage of 1.02.
Work on C9U A51C yielded a self-cleavage of 1.03.
For C9A A51C, the self-cleavage was 1.03.
Variant C9A A51U has a self-cleavage of 1.04.
With C9A A51G the self-cleavage was 1.03.
C9G C35G gave a self-cleavage of 0.758.
Work on C9G C35U yielded a self-cleavage of 0.964.
With C9G U53G the self-cleavage was 0.961.
Work on C9G U53C yielded a self-cleavage of 0.956.
In the case of C9U C63A, the self-cleavage is reported as 0.968.
Work on C9U C63G yielded a self-cleavage of 0.88.
Variant C9U C63U has a self-cleavage of 0.982.
C9A U44C showed a self-cleavage of 1.02.
Work on C9A U44A yielded a self-cleavage of 0.998.
In the case of A8U U26C, the self-cleavage is reported as 0.924.
With A8U U26G the self-cleavage was 0.97.
A8U U26A showed a self-cleavage of 0.893.
C9A G37A gave a self-cleavage of 0.397.
C9A G37C showed a self-cleavage of 0.242.
With C9G A51U the self-cleavage was 0.976.
In the case of C9G A51G, the self-cleavage is reported as 0.993.
C9A U64C showed a self-cleavage of 0.938.
Work on C9A U64G yielded a self-cleavage of 0.951.
For C9A U64A, the self-cleavage was 0.94.
Work on C9A A15G yielded a self-cleavage of 1.03.
In the case of C9U A13C, the self-cleavage is reported as 0.925.
With C9U A13U the self-cleavage was 0.966.
C9A G56A showed a self-cleavage of 1.02.
With C9A C27U the self-cleavage was 0.695.
For C9A C27G, the self-cleavage was 0.256.
With C9U C39G the self-cleavage was 0.962.
C9U C39A gave a self-cleavage of 0.912.
In the case of C9A G28U, the self-cleavage is reported as 0.187.
C9A G28C gave a self-cleavage of 0.196.
With C9G C45G the self-cleavage was 0.996.
With A8U U44G the self-cleavage was 0.932.
A8U U44C showed a self-cleavage of 0.933.
With C9A U55A the self-cleavage was 0.981.
For C9G G50C, the self-cleavage was 1.01.
C9U C18A gave a self-cleavage of 0.355.
C9U C18G showed a self-cleavage of 0.283.
C9U C18U showed a self-cleavage of 0.927.
A8U G41U gave a self-cleavage of 0.877.
C9A G30U showed a self-cleavage of 0.846.
Work on C9A G30C yielded a self-cleavage of 0.953.
For C9A G30A, the self-cleavage was 1.01.
For A8U G65C, the self-cleavage was 0.644.
Variant A8U G65U has a self-cleavage of 0.768.
In the case of C9U C33A, the self-cleavage is reported as 0.994.
C9U C33U showed a self-cleavage of 0.996.
For C9G C22G, the self-cleavage was 0.257.
C9G C22U gave a self-cleavage of 0.445.
For C9G G65C, the self-cleavage was 0.585.
Work on C9G G65U yielded a self-cleavage of 0.65.
For C9G G65A, the self-cleavage was 0.968.
C9G U43C showed a self-cleavage of 0.996.
For C9G U43A, the self-cleavage was 1.02.
Work on C9G U43G yielded a self-cleavage of 0.955.
For C9U G28A, the self-cleavage was 0.227.
With C9U G28C the self-cleavage was 0.173.
For A8U G56U, the self-cleavage was 0.972.
Work on A8U G56A yielded a self-cleavage of 0.957.
A8U U61A showed a self-cleavage of 0.944.
A8U U61G gave a self-cleavage of 0.959.
C9U G25U showed a self-cleavage of 0.192.
In the case of C9U G25C, the self-cleavage is reported as 0.146.
With C9A U67C the self-cleavage was 1.
In the case of C9A U67G, the self-cleavage is reported as 1.05.
Work on C9G G48C yielded a self-cleavage of 0.99.
C9G G48A gave a self-cleavage of 1.01.
In the case of C9G C66G, the self-cleavage is reported as 0.905.
With C9G C66U the self-cleavage was 0.967.
For C9G U69G, the self-cleavage was 1.05.
Variant C9G U69A has a self-cleavage of 1.04.
Work on A8U G50C yielded a self-cleavage of 1.
For A8U G50A, the self-cleavage was 1.03.
In the case of C9A U61C, the self-cleavage is reported as 0.863.
Work on C9A U61A yielded a self-cleavage of 0.988.
For C9A U61G, the self-cleavage was 0.86.
In the case of C9U A52C, the self-cleavage is reported as 1.01.
Variant C9U A52U has a self-cleavage of 0.996.
Variant A8U U46C has a self-cleavage of 0.998.
For A8U U46A, the self-cleavage was 1.
A8U U46G gave a self-cleavage of 1.01.
C9A U20G gave a self-cleavage of 0.19.
With C9A U20A the self-cleavage was 0.0654.
C9A C33U gave a self-cleavage of 1.03.
Work on C9A C33G yielded a self-cleavage of 0.962.
C9A C33A gave a self-cleavage of 0.993.
Work on C9G A13C yielded a self-cleavage of 0.845.
Work on C9G A13G yielded a self-cleavage of 0.922.
Variant C9U A10G has a self-cleavage of 1.04.
C9U A10C showed a self-cleavage of 1.06.
C9U A10U gave a self-cleavage of 0.987.
Variant C9G C27U has a self-cleavage of 0.888.
C9U C22U showed a self-cleavage of 0.403.
Variant C9U A15C has a self-cleavage of 0.989.
Variant C9U C57U has a self-cleavage of 0.38.
C9U C57A gave a self-cleavage of 0.32.
With A8U G48A the self-cleavage was 1.03.
Variant A8U G48C has a self-cleavage of 0.994.
A8U G68A showed a self-cleavage of 0.991.
A8U G68C gave a self-cleavage of 1.02.
Variant A8U G68U has a self-cleavage of 1.03.
Variant C9A C29G has a self-cleavage of 0.854.
Variant C9A U36G has a self-cleavage of 0.244.
With C9A U36C the self-cleavage was 0.968.
In the case of C9G A60C, the self-cleavage is reported as 0.385.
Variant C9G A60U has a self-cleavage of 0.486.
A8U U49G showed a self-cleavage of 1.02.
For A8U U67G, the self-cleavage was 1.03.
C9A G17A showed a self-cleavage of 0.707.
With C9A G17U the self-cleavage was 0.622.
With C9G C18A the self-cleavage was 0.256.
C9G C18G gave a self-cleavage of 0.2.
A8U U43C showed a self-cleavage of 0.951.
In the case of A8U U43A, the self-cleavage is reported as 0.899.
C9A A60G gave a self-cleavage of 1.04.
Work on C9A A60C yielded a self-cleavage of 0.364.
For C9A A60U, the self-cleavage was 0.632.
In the case of C9G G11A, the self-cleavage is reported as 0.882.
Variant C9A U26C has a self-cleavage of 0.983.
C9A U26A gave a self-cleavage of 0.946.
For C9G C32A, the self-cleavage was 0.983.
C9G C32G showed a self-cleavage of 0.665.
C9G C32U gave a self-cleavage of 0.992.
C9A U21G showed a self-cleavage of 0.774.
Variant C9A U21C has a self-cleavage of 0.985.
With C9A A10U the self-cleavage was 1.05.
Work on C9A G14C yielded a self-cleavage of 0.513.
In the case of C9G G47C, the self-cleavage is reported as 1.01.
With C9G U46A the self-cleavage was 1.03.
In the case of A8U U69C, the self-cleavage is reported as 1.06.
A8U U69A gave a self-cleavage of 1.05.
For C9A G41A, the self-cleavage was 0.988.
In the case of C9A G41C, the self-cleavage is reported as 0.906.
For C9U A60G, the self-cleavage was 0.983.
C9U A60C showed a self-cleavage of 0.303.
With C9G A52G the self-cleavage was 1.05.
Variant C9G A40G has a self-cleavage of 0.968.
In the case of C9A C35A, the self-cleavage is reported as 0.423.
Variant C9A C35U has a self-cleavage of 1.03.
Work on C9A C35G yielded a self-cleavage of 0.72.
A8U U21G showed a self-cleavage of 0.588.
For A8U U21C, the self-cleavage was 0.846.
C9A G65C gave a self-cleavage of 0.627.
Variant C9A U69G has a self-cleavage of 1.07.
C9A U69C gave a self-cleavage of 1.08.
C9G U20G showed a self-cleavage of 0.212.
In the case of C9G U20A, the self-cleavage is reported as 0.0617.
For C9A U49C, the self-cleavage was 0.989.
Variant C9A G48U has a self-cleavage of 1.03.
C9A G48C gave a self-cleavage of 1.02.
Variant C9A G11C has a self-cleavage of 0.935.
C9A G11A showed a self-cleavage of 0.938.
For C9A G11U, the self-cleavage was 0.973.
C9G A42U gave a self-cleavage of 1.01.
C9G A42G gave a self-cleavage of 0.949.
For C9G A42C, the self-cleavage was 1.03.
With A8U U64A the self-cleavage was 0.969.
C9U A16C showed a self-cleavage of 0.531.
